What all share (assay): Ni-NTA pull-down with immunoblot quantification (ImageJ)
Conditions in all cases: chain shown with the change; U2OS UNC45A-KO cells cotransfected; 5 independent experiments; parent: est. 1; read off a plot
In general terms: A western blot detects proteins with antibodies after separation by electrophoresis.

Experiment [1] has as its target T1, His-tagged UNC45A p.Leu237Pro mutant, Q9H3U1-1.
T1 chain: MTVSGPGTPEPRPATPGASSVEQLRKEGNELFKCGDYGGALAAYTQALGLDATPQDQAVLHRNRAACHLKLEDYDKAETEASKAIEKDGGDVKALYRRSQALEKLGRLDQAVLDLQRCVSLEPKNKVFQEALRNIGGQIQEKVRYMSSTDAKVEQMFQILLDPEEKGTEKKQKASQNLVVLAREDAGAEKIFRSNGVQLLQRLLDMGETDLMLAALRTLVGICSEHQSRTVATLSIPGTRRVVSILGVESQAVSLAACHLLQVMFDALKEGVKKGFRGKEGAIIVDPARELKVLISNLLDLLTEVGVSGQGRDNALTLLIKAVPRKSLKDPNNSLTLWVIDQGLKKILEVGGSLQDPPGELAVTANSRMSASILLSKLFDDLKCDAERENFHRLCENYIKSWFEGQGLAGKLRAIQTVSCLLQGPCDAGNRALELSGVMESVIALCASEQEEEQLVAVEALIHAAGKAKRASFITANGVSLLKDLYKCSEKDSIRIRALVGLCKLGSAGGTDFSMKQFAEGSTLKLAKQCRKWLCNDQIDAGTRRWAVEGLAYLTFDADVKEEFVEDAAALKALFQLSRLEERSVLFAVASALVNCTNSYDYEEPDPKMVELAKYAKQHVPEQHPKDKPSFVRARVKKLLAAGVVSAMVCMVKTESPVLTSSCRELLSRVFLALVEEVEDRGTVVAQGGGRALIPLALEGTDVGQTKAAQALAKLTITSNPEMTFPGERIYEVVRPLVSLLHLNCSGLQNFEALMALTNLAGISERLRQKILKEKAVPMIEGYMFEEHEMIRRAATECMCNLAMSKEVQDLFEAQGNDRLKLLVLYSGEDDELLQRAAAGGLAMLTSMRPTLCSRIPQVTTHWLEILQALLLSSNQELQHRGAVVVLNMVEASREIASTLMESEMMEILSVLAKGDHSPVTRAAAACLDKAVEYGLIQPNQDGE

In experiment [2] the target is T2, His-tagged UNC45A wild-type, Q9H3U1-1.
T2 chain: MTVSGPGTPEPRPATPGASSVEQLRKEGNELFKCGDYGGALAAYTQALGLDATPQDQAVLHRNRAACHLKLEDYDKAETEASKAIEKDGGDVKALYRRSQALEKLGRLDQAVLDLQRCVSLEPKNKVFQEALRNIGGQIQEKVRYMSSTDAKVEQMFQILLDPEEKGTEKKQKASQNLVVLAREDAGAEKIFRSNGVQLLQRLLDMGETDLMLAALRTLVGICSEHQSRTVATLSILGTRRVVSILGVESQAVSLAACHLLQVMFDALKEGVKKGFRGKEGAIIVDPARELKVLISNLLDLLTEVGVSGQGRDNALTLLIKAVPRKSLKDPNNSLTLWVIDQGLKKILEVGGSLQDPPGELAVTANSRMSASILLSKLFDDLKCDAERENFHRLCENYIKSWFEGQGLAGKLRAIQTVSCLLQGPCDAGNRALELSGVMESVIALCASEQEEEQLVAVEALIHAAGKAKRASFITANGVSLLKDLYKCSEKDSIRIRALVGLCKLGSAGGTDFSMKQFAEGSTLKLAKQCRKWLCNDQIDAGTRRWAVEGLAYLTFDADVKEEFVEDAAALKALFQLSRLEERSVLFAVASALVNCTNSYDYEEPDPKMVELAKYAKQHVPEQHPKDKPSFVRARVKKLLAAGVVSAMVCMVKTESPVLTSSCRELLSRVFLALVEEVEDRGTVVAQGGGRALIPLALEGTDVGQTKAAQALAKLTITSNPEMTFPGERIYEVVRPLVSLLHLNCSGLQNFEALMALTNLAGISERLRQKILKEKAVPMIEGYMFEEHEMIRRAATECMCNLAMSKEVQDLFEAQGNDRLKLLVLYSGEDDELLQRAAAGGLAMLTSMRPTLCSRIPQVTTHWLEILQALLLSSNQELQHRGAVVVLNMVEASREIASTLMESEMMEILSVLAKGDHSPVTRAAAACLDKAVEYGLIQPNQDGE

In experiment [3] the target is T3, HA-tagged UNC45A wild-type (Unc-45 myosin chaperone A), Q9H3U1-1.
T3 chain: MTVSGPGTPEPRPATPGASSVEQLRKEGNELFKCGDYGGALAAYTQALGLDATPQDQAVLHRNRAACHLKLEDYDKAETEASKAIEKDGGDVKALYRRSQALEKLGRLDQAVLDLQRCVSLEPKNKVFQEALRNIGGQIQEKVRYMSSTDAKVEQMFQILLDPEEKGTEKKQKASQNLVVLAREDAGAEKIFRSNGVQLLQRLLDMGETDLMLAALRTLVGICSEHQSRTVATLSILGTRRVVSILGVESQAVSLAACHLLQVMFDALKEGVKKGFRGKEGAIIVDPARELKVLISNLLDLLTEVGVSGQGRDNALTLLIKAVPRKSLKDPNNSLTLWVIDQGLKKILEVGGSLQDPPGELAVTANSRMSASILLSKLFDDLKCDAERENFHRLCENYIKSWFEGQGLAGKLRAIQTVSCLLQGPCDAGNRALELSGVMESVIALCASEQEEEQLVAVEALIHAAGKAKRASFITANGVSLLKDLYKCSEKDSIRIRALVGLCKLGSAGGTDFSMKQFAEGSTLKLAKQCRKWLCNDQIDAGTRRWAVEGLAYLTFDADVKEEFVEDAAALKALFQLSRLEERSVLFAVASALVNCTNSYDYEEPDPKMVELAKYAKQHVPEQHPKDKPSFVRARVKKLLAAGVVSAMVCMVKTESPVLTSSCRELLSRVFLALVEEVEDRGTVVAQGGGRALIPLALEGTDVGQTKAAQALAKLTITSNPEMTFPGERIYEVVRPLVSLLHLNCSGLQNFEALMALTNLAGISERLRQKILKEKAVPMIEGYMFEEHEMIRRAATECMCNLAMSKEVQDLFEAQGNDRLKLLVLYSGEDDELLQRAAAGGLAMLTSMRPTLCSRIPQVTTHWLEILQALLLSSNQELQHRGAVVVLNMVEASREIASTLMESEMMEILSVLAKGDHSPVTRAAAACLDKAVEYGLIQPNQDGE

B1: m1 (prey) and m3 (bait) p.Leu237Pro (HA-tagged prey); p.Leu237Pro (His-tagged bait) (protein)
chain: MTVSGPGTPEPRPATPGASSVEQLRKEGNELFKCGDYGGALAAYTQALGLDATPQDQAVLHRNRAACHLKLEDYDKAETEASKAIEKDGGDVKALYRRSQALEKLGRLDQAVLDLQRCVSLEPKNKVFQEALRNIGGQIQEKVRYMSSTDAKVEQMFQILLDPEEKGTEKKQKASQNLVVLAREDAGAEKIFRSNGVQLLQRLLDMGETDLMLAALRTLVGICSEHQSRTVATLSIPGTRRVVSILGVESQAVSLAACHLLQVMFDALKEGVKKGFRGKEGAIIVDPARELKVLISNLLDLLTEVGVSGQGRDNALTLLIKAVPRKSLKDPNNSLTLWVIDQGLKKILEVGGSLQDPPGELAVTANSRMSASILLSKLFDDLKCDAERENFHRLCENYIKSWFEGQGLAGKLRAIQTVSCLLQGPCDAGNRALELSGVMESVIALCASEQEEEQLVAVEALIHAAGKAKRASFITANGVSLLKDLYKCSEKDSIRIRALVGLCKLGSAGGTDFSMKQFAEGSTLKLAKQCRKWLCNDQIDAGTRRWAVEGLAYLTFDADVKEEFVEDAAALKALFQLSRLEERSVLFAVASALVNCTNSYDYEEPDPKMVELAKYAKQHVPEQHPKDKPSFVRARVKKLLAAGVVSAMVCMVKTESPVLTSSCRELLSRVFLALVEEVEDRGTVVAQGGGRALIPLALEGTDVGQTKAAQALAKLTITSNPEMTFPGERIYEVVRPLVSLLHLNCSGLQNFEALMALTNLAGISERLRQKILKEKAVPMIEGYMFEEHEMIRRAATECMCNLAMSKEVQDLFEAQGNDRLKLLVLYSGEDDELLQRAAAGGLAMLTSMRPTLCSRIPQVTTHWLEILQALLLSSNQELQHRGAVVVLNMVEASREIASTLMESEMMEILSVLAKGDHSPVTRAAAACLDKAVEYGLIQPNQDGE
On to B1, for which, in experiment [1], the ratio to parent is 12 fold change.

B2: HA-tagged UNC45A wild-type (Unc-45 myosin chaperone A), Q9H3U1-1 p.Leu237Pro (protein)
chain: MTVSGPGTPEPRPATPGASSVEQLRKEGNELFKCGDYGGALAAYTQALGLDATPQDQAVLHRNRAACHLKLEDYDKAETEASKAIEKDGGDVKALYRRSQALEKLGRLDQAVLDLQRCVSLEPKNKVFQEALRNIGGQIQEKVRYMSSTDAKVEQMFQILLDPEEKGTEKKQKASQNLVVLAREDAGAEKIFRSNGVQLLQRLLDMGETDLMLAALRTLVGICSEHQSRTVATLSIPGTRRVVSILGVESQAVSLAACHLLQVMFDALKEGVKKGFRGKEGAIIVDPARELKVLISNLLDLLTEVGVSGQGRDNALTLLIKAVPRKSLKDPNNSLTLWVIDQGLKKILEVGGSLQDPPGELAVTANSRMSASILLSKLFDDLKCDAERENFHRLCENYIKSWFEGQGLAGKLRAIQTVSCLLQGPCDAGNRALELSGVMESVIALCASEQEEEQLVAVEALIHAAGKAKRASFITANGVSLLKDLYKCSEKDSIRIRALVGLCKLGSAGGTDFSMKQFAEGSTLKLAKQCRKWLCNDQIDAGTRRWAVEGLAYLTFDADVKEEFVEDAAALKALFQLSRLEERSVLFAVASALVNCTNSYDYEEPDPKMVELAKYAKQHVPEQHPKDKPSFVRARVKKLLAAGVVSAMVCMVKTESPVLTSSCRELLSRVFLALVEEVEDRGTVVAQGGGRALIPLALEGTDVGQTKAAQALAKLTITSNPEMTFPGERIYEVVRPLVSLLHLNCSGLQNFEALMALTNLAGISERLRQKILKEKAVPMIEGYMFEEHEMIRRAATECMCNLAMSKEVQDLFEAQGNDRLKLLVLYSGEDDELLQRAAAGGLAMLTSMRPTLCSRIPQVTTHWLEILQALLLSSNQELQHRGAVVVLNMVEASREIASTLMESEMMEILSVLAKGDHSPVTRAAAACLDKAVEYGLIQPNQDGE
Take B2: the ratio to parent in experiment [2] was found to be 1.6 fold change.

B3: His-tagged UNC45A wild-type, Q9H3U1-1 p.Leu237Pro (protein)
chain: MTVSGPGTPEPRPATPGASSVEQLRKEGNELFKCGDYGGALAAYTQALGLDATPQDQAVLHRNRAACHLKLEDYDKAETEASKAIEKDGGDVKALYRRSQALEKLGRLDQAVLDLQRCVSLEPKNKVFQEALRNIGGQIQEKVRYMSSTDAKVEQMFQILLDPEEKGTEKKQKASQNLVVLAREDAGAEKIFRSNGVQLLQRLLDMGETDLMLAALRTLVGICSEHQSRTVATLSIPGTRRVVSILGVESQAVSLAACHLLQVMFDALKEGVKKGFRGKEGAIIVDPARELKVLISNLLDLLTEVGVSGQGRDNALTLLIKAVPRKSLKDPNNSLTLWVIDQGLKKILEVGGSLQDPPGELAVTANSRMSASILLSKLFDDLKCDAERENFHRLCENYIKSWFEGQGLAGKLRAIQTVSCLLQGPCDAGNRALELSGVMESVIALCASEQEEEQLVAVEALIHAAGKAKRASFITANGVSLLKDLYKCSEKDSIRIRALVGLCKLGSAGGTDFSMKQFAEGSTLKLAKQCRKWLCNDQIDAGTRRWAVEGLAYLTFDADVKEEFVEDAAALKALFQLSRLEERSVLFAVASALVNCTNSYDYEEPDPKMVELAKYAKQHVPEQHPKDKPSFVRARVKKLLAAGVVSAMVCMVKTESPVLTSSCRELLSRVFLALVEEVEDRGTVVAQGGGRALIPLALEGTDVGQTKAAQALAKLTITSNPEMTFPGERIYEVVRPLVSLLHLNCSGLQNFEALMALTNLAGISERLRQKILKEKAVPMIEGYMFEEHEMIRRAATECMCNLAMSKEVQDLFEAQGNDRLKLLVLYSGEDDELLQRAAAGGLAMLTSMRPTLCSRIPQVTTHWLEILQALLLSSNQELQHRGAVVVLNMVEASREIASTLMESEMMEILSVLAKGDHSPVTRAAAACLDKAVEYGLIQPNQDGE
Regarding B3, the ratio to parent in experiment [3] is 2.2 fold change.

Values taken from PMC11949031.
